This is an account of results in patent US9803019B2, “Carrier immunoglobulins and uses thereof” (Amgen Inc., priority 2010, dated 2017).

In one assay the target is T1, Kv1.3 (Homo sapiens, UniProt P22001).
T1 construct: endogenous in cells; host or cells: T cells in 50% human whole blood from multiple donors
Nature of the assay: Human whole blood assay: thapsigargin-induced IL-2 and IFN-γ secretion. Format: cell-based. As to conditions: for IC50: human whole blood; for Potency Relative to ShK (WB, IL2): ratio of WB IL-2 IC50 to that of ShK(1-35). On the procedure: An ex vivo assay was employed to examine impact of toxin peptide analog Kv1.3 inhibitors on secretion of IL-2 and IFN-γ. […] In brief, 50% human whole blood was stimulated with thapsigargin to induce store depletion, calcium mobilization and cytokine secretion. […] After 48 hours at 37° C. and 5% CO2, conditioned medium was collected and the level of cytokine secretion was determined using a 4-spot electrochemiluminescent immunoassay from MesoScale Discovery. […] Kv1.3 is the major voltage-gated potassium channel present on T cells. Allowing for K^+ efflux, Kv1.3 provides the driving force for continued Ca^2+ influx which is necessary for the sustained elevation in intracellular calcium needed for efficient T cell activation and cytokine secretion. […] Therefore, we employed a bioassay whereby the bioactivity of Kv1.3 inhibitors is assessed by examining their ability to block thapsigargin-induced cytokine secretion from T cells in human whole blood.

The target in another assay is T2, huIL-17R (Homo sapiens, UniProt Q96F46).
T2 construct: FLAG (the F of FpH); polyHis (the pH of FpH)
T2 sequence (Q96F46 with tags, fused parts or gaps): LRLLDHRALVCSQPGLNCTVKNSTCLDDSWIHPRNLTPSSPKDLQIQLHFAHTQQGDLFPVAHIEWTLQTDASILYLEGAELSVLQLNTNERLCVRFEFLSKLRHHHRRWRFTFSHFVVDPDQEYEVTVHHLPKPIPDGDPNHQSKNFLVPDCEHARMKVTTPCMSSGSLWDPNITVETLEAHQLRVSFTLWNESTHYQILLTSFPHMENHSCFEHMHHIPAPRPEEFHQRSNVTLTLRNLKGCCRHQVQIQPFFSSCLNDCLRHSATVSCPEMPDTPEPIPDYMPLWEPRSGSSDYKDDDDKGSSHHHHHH
Nature of the assay: BIAcore solution equilibrium binding assay to huIL-17R (16429 immobilized). As to conditions: for IL-17R binding capability: 10 nM, 100 nM and 1000 nM antibody incubated with 10 nM IL-17R (FIG. 2A); for IL-17R binding activity: 30 μM antibody with 30 nM IL-17R (FIG. 2B). The procedure:
Antibody 16429 was immobilized to a CM5 sensor chip, and 10 nM of IL-17R in the absence of antibody was used to establish the 100% binding signal of […] that is free of antibody binding in solution. In FIG. 2A, 10 nM, 100 nM and 1000 nM of indicated antibody samples were incubated with the 10 nM IL-17R to determine antibody binding in solution. In FIG. 2B, 30,000 nM of the antibody samples were incubated with 30 nM IL-17R to determine antibody binding in solution. In FIGS. 2A-B, The decreased binding signal of IL-17R after the antibody incubation indicates the binding of the antibody to IL-17R in solution.
A reference antigen binding protein (e.g., Antibody 16429 for human IL-17R or Antibody 16449 for human TR2) is immobilized to a BIACore® 2000, research grade sensor chip CM5 surface according to manufacturer's instructions (BIACore, Inc., Piscataway, N.J.). Carboxyl groups on the sensor chip surfaces are activated by injecting 60 μL of a mixture containing 0.2 M N-ethyl-N′-(dimethylaminopropyl) carbodiimide (EDC) and 0.05 M N-hydroxysuccinimide (NHS). The reference antigen binding protein is diluted in 10 mM sodium acetate, pH 4.0 and injected over the activated chip surface at 30 μL/min for 6 minutes. Excess reactive groups on the surfaces are deactivated by injecting 60 μL of 1 M ethanolamine. The final immobilized level is typically approximately 6600 resonance units (RU). Soluble target antigen (e.g., 10 nM of soluble human IL-17R or 30 nM of soluble human TR2) in the absence of soluble antigen binding protein (e.g., antibody) is used to establish the 100% binding signal to the fixed reference antigen binding protein (e.g., the positive control antibody). The decreased binding signal of the target antigen after incubation of the test immunoglobulin indicates its level of binding to the target antigen in solution.
The lead candidates were then selected based on lack of binding to the IL-17R extracellular domain as determined by BIAcore analysis. Antibody 16429 is a human antibody that specifically binds to huIL-17R. A solution equilibrium binding assay was developed to assess the binding activity of a set of antibodies to huIL-17R. Antibody 16429 was immobilized to a BIACore® 2000, research grade sensor chip CM5 surface according to manufacturer's instructions (BIACore, Inc., Piscataway, N.J.). Briefly, carboxyl groups on the sensor chip surfaces were activated by injecting 60 μL of a mixture containing 0.2 M N-ethyl-N′-(dimethylaminopropyl) carbodiimide (EDC) and 0.05 M N-hydroxysuccinimide (NHS). Antibody 16429 was diluted in 10 mM sodium acetate, pH 4.0 and injected over the activated chip surface at 30 μL/min for 6 minutes. Excess reactive groups on the surfaces were deactivated by injecting 60 μL of 1 M ethanolamine. The final immobilized level was approximately 6600 resonance units (RU). As represented in FIG. 2A, 10 nM of IL-17R in the absence of soluble antibody was used to establish the 100% binding signal of IL-17R to the fixed 16429 antibody. To determine antibody binding in solution, 10 nM, 100 nM and 1000 nM of the antibody samples were incubated with the 10 nM IL-17R. The decreased binding signal of IL-17R after the antibody incubation indicates the binding of the antibody to IL-17R in solution.

A further assay addresses T3, IL-17R (Homo sapiens, UniProt Q96F46).
T3 construct: endogenous in cells; host or cells: human foreskin fibroblasts (HFF)
T3 sequence (Q96F46 33-866): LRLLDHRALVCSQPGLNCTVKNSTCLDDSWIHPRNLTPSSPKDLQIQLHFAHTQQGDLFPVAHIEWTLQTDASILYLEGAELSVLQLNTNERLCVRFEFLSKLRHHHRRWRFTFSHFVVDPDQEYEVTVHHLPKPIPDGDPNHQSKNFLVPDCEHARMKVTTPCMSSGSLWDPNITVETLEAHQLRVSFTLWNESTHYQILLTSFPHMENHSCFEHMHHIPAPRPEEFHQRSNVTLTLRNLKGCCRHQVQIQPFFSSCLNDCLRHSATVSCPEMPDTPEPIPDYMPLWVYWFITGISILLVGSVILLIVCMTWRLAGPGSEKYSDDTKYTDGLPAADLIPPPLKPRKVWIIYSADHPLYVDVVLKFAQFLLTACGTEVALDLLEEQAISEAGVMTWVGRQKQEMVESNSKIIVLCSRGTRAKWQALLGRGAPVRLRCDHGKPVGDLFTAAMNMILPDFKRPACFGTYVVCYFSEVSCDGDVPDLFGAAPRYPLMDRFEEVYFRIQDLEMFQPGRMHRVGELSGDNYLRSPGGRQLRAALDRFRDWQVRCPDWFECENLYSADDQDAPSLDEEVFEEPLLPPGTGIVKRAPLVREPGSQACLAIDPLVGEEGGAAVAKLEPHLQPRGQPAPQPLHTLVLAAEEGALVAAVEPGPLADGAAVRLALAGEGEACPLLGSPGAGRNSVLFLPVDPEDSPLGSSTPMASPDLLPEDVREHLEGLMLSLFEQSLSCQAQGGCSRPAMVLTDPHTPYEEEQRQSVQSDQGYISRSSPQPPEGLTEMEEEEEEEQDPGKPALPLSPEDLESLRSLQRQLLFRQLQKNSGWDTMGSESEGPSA
Nature of the assay: Cell based activity assay: IL-17-induced GRO-α release from human foreskin fibroblasts (sandwich ELISA). As to conditions: HFF, 5 ng/ml IL-17; 0.1, 1 and 10 μM antibody (FIG. 3). On the procedure:
The conditioned cell medium was then assessed for GRO-α levels using a GRO-α sandwich ELISA.
Interaction of IL-17 with the IL-17R on cells induces the production of various factors, including growth-related oncogene alpha (GRO-α), from these cells. A cell-based characterization assay was developed to measure GRO-α released using sandwich ELISA. In this ELISA, a GRO-α capture antibody is utilized to bind GRO-α, and then a biotinylated GRO-α detection antibody is used to detect the captured protein. Streptavidin conjugated to horseradish peroxidise (HRP) is then added to detect the amount of biotinylated GRO-α detection antibody bound. The amount of HRP bound is measured by evaluation of absorbance at 450 nm. An increase in absorbance at 450 nm is indicative of an increase in the amount of GRO-α produced. In this assay, human foreskin fibroblasts (HFF) are incubated with 5 ng/ml IL-17 and 0.1 μM, 1 μM and 10 μM of antibody samples. The conditioned cell medium is then harvested and processed for assessment of GRO-α levels using a GRO-α sandwich ELISA.
For orientation: ELISA stands for enzyme-linked immunosorbent assay.

Substitutions are numbered along the chain they refer to. Where two headings read alike, the source gives them in different places. Where no end group is shown, it is not given here.

T1 sequence (P22001 whole entry): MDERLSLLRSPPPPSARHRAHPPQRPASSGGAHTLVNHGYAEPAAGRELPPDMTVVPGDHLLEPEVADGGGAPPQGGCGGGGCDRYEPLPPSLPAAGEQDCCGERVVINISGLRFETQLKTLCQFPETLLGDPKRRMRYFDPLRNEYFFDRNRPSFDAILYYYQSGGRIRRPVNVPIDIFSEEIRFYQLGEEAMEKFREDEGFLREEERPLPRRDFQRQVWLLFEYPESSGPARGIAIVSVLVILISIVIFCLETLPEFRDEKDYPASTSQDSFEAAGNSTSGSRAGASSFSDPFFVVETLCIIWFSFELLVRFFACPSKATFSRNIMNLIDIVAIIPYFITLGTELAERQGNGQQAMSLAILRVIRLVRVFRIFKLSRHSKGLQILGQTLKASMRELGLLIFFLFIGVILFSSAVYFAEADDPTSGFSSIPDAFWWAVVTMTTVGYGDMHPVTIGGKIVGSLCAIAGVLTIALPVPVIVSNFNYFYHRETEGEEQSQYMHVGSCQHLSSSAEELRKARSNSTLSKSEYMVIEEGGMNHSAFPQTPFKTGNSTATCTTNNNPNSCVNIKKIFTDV

Broadly, the IC50 is the concentration that gives 50% inhibition. As to “20 kDa-PEG-ShK: N-terminally 20 kDa PEGylated ShK, SEQ ID NO:380”, the IC50 with Kv1.3 (IFNg, read-out: WB (IFNg) IC50) turned out to be 840 pM; with Kv1.3 (IL-2, read-out: WB (IL-2) IC50), 380 pM.
Consider “Bivalent Fc-L10-ShK[1-35] homodimer: IgG1 Fc peptibody, Example 1 of WO2008/088422 A2 (GGGGSGGGGSRSCIDTIPKSRCTAFQCKHSMKYRLSFCRKTCGTC; ends and bridges not checked; also: Fc fusion homodimer, Fc domain not in chain)”, for which the IC50 with Kv1.3 (IFNg, read-out: WB (IFNg) IC50) came out at 320 pM; with Kv1.3 (IL-2, read-out: WB (IL-2) IC50), 386 pM. For the same molecule, in the assay with Kv1.3, the “Potency Relative to ShK (WB, IL2)” value is 5.76.
As to “Bivalent Fc-L10-ShK[2-35] homodimer: IgG1 Fc peptibody, Example 2 of WO2008/088422 A2 (GGGGSGGGGSSCIDTIPKSRCTAFQCKHSMKYRLSFCRKTCGTC; ends and bridges not checked; also: Fc fusion homodimer, Fc domain not in chain)”, the IC50 worked out at 2280 pM in the assay with Kv1.3 (IFNg, read-out: WB (IFNg) IC50) and 585 pM with Kv1.3 (IL-2, read-out: WB (IL-2) IC50). The “Potency Relative to ShK (WB, IL2)” value with Kv1.3 amounted to 8.73.

B1: 16438 (antibody, V domains shown)
VH: QVQLVQSGAEVKKPGASVKVSCKASGYTFTRYGISWVRQAPGQGLEWMGWISTYSGNTNYAQKLQGRVTMTTDTSTSTAYMELRSLRSDDTAVYYCARRQQYFDYWGQGTLVTVSS
VL: EIVMTQSPATLSVSPGERATLSCRASQSVSSNLAWFQQKPGQAPRLLIYDASTRATGVPARFSGSGSGTEFTLTISSLQSEDFAVYYCQQYDNWPLTFGGGTKVEIK
Consider B1, for which, in the assay with huIL-17R, the IL-17R binding capability entry was “substantial reduction in IL-17R binding capability” and the IL-17R binding activity result is recorded as “no significant IL-17R binding activity”. In addition, the “blocking activity on IL-17-induced GRO-α production” value (shortened to “blocking activity”) in the assay with IL-17R was “no significant blocking activity”.

B2: 16441 (antibody, V domains shown)
VH: B1 VH with R99A
VL: B1 VL
With B2, in the assay with huIL-17R, the IL-17R binding capability entry is on record as “substantial reduction in IL-17R binding capability” and the IL-17R binding activity result was “no significant IL-17R binding activity”. In addition, the “blocking activity” value with IL-17R is listed as “no significant blocking activity”.

B3: 16440 (antibody, V domains shown)
VH: B1 VH with R99A
VL: B1 VL with L46P, E70D
Take B3: in the assay with huIL-17R, the IL-17R binding capability result was “substantial reduction in IL-17R binding capability” and the IL-17R binding activity result is on record as “no significant IL-17R binding activity”. For the same molecule, in the assay with IL-17R, the “blocking activity” value is “no significant blocking activity”.

B4: 16439 (antibody, V domains shown)
VH: B1 VH
VL: B1 VL with W94A
Take B4: in the assay with huIL-17R, the IL-17R binding capability result is recorded as “substantial reduction in IL-17R binding capability” and the IL-17R binding activity entry is on record as “no significant IL-17R binding activity”. Besides, the “blocking activity” value with IL-17R was “no significant blocking activity”.
